Here are results for 4 molecules from patent publication US20240239894A1 (AstraZeneca / MedImmune, published 2024).

To fix the notation:
T1: huBTN1A1 (human, UniProt Q13410 27-242, limits assumed)
T1 construct: Sourced antigen; construct not described; also called Human BTN1A1
T1 sequence (looked up): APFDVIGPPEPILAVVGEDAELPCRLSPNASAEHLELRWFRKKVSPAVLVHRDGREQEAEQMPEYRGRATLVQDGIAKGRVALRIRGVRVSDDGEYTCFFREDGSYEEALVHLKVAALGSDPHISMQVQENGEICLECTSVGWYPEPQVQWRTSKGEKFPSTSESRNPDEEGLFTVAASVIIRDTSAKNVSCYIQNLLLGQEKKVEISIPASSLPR

T2: huBTNL3 (human, UniProt Q6UXE8 18-237, limits assumed)
T2 construct: Sourced antigen; construct not described; also called Human BTNL3
T2 sequence (looked up): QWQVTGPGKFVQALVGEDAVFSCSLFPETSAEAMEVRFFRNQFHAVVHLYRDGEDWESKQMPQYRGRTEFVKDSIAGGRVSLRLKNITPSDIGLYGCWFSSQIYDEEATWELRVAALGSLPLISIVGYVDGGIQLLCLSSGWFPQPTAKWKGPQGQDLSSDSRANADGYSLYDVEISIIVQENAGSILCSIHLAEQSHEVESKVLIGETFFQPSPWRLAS

T3: huB7-H3 (human, UniProt Q5ZPR3 29-461, limits assumed)
T3 construct: Sourced antigen; construct not described; also called Human B7-H3
T3 sequence (looked up): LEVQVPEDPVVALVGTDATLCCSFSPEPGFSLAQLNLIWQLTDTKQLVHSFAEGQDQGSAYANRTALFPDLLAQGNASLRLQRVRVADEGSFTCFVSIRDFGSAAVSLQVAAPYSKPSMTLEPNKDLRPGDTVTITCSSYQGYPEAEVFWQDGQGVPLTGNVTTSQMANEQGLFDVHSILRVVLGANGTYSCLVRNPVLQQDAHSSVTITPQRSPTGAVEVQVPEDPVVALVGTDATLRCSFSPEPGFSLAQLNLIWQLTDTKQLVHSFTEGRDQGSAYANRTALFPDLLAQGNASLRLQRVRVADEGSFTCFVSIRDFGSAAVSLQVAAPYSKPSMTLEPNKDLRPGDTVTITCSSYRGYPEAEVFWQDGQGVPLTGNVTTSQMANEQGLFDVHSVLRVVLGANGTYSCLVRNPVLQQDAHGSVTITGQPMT

T4: huB7-H2 (human, UniProt O75144 19-258)
T4 construct: Sourced antigen; construct not described; also called Human B7-H2
T4 sequence (looked up): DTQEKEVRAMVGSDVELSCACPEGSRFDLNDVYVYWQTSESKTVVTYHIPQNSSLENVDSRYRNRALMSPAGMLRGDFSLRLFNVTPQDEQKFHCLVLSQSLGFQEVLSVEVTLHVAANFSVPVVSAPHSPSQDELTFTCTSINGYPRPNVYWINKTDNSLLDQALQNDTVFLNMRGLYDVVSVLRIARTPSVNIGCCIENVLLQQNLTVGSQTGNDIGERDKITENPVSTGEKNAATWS

T5: huBTN2A1 (human, UniProt Q7KYR7 29-248, limits assumed)
T5 construct: Sourced antigen; construct not described; also called Human BTN2A1
T5 sequence (looked up): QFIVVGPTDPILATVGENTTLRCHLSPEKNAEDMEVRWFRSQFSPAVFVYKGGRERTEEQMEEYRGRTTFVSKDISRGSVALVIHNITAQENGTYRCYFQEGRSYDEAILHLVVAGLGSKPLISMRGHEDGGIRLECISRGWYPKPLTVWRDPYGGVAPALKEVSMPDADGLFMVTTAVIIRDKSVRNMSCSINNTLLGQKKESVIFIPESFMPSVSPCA

T6: huHHLA2 (human, UniProt Q9UM44 23-344)
T6 construct: Sourced antigen; construct not described; also called Human HHLA2
T6 sequence (looked up): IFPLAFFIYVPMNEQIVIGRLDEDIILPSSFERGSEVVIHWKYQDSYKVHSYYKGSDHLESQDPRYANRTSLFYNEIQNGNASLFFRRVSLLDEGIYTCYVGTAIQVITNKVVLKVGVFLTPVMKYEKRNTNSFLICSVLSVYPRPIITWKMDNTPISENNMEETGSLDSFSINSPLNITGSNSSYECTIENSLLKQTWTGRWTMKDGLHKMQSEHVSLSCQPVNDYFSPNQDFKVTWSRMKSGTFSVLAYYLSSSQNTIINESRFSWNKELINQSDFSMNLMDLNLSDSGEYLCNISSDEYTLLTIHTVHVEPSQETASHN

T7: Human B7-H4-Fc (Human B7H4 ECD, Fc_6His) (human)
T7 construct: also called FcHis6 tagged human B7-H4
T7 sequence (Q7Z7D3 whole entry, looked up): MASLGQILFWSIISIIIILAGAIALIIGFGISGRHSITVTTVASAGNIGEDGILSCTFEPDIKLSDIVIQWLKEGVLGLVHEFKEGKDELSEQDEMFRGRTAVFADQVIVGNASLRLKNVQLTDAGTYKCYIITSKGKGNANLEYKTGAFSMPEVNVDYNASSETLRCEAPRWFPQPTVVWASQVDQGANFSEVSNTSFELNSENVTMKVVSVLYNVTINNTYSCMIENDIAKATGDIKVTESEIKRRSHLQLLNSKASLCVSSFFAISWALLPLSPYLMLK

T8: human B7-H4 on cells (human, UniProt Q7Z7D3 25-282)
T8 sequence: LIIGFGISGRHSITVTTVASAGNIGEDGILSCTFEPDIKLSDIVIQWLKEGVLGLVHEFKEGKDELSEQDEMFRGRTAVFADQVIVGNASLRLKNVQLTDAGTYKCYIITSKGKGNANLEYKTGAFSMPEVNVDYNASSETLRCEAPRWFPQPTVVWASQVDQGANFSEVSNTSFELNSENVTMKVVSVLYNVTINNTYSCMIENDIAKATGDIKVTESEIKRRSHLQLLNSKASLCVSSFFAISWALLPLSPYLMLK

B1: ZY0EQD-E02 human IgG1-TM (antibody, V domains shown)
VH: QVQLQQWGAGLLKPSETLSLTCAVYGGSFSGYYWNWIRQPPGKGLEWIGEINHSGSTSYNPSLKSRVTISVDTSKNQFSLKLSSVTAADTAVYYCARVLYNWNVDSWGQGTLVTVSS
VL: DIQMTQSPSSLSASVGDRVTITCRASQDIRNDVGWYQQKPGKAPKRLIYAASRLQSGVPSRFSGSGSGTEFTLTISSLQPEDFATYYCLQHNSYPRTFGQGTKVEIK
B2: ZY0EPQ-E02 human IgG1-TM (antibody, V domains shown)
VH: B1 VH with S58N, S70L, V98N, V104L
VL: B1 VL with D28G, V33L, K42R, A50V, R53S
B3: ZY0EOB-F05 human IgG1-TM (antibody, V domains shown)
VH: QVQLQESGPGLVKPSQTLSLTCTVSDGSISSGGYYWSWIRQHPGKGLEWIGNIYYSGSTYYNPSLKSRVTISVDTSKNQFSLKLNSVTAADTAVYYCATEKALATVTPSGYENYYTVDVWGQGTTVTVSS
VL: DIQLTQSPSFLSASVGDRVTITCWASQGISSYLAWYQQKPGKAPKLLIYAASTLQSGVPSRFSGSGSGTEFTLTISSLQPEDFATYYCQHLNSYPLTFGGGTKVEIK
B4: ZY0EP0-C07 human IgG1-TM (antibody, V domains shown)
VH: QVQLVESGGVLVKPGGSLRLSCAASGFTLSDYYMSWIRQAPGMGLEWVSYISSSGSTIYYTDSVKGRFTISRDSAKNSLYLQMNSLRAEDTAVYYCARDGVGFDYWGQGTLVTVSS
VL: EIVLTQSPGTLSLFPGERATLSCRASQSVSSSYLAWYQQKPGQSPRLLIYAASSRATGIPDRFSGSGSGTDFTLTISRLEPEDFAVYYCQQYGSSPLYTFGQGTKLEIK
notes: also called ZY0EPO-C07

Residue numbers refer to the chain shown, from its start.

The target of the first assay is T9, huBTN3A2 (human, UniProt P78410 30-248, limits assumed).
T9 construct: Sourced antigen; construct not described; also called Human BTN3A2
T9 sequence (P78410 30-248 limits assumed): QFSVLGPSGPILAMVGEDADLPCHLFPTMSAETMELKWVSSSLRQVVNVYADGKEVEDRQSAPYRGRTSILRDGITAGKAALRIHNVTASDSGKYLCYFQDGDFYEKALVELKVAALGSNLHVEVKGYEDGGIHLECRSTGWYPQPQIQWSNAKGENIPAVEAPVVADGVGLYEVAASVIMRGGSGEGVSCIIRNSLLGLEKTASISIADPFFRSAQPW
Put plainly: ELISA. In general terms: In an ELISA, binding on a coated surface is turned into a signal by an enzyme label.
With B1, the binding result is “no binding”.
On the same count and under the same terms, for B2 the value was “no binding”.
On to B3, for which the binding result is listed as “no binding”.
With B4, the binding result is on record as “no binding”.

A further assay deals with T1, huBTN1A1. Nature of the assay: ELISA.
Regarding B1, the binding result is recorded as “no binding”.
Regarding B2, the binding result is “no binding”.
As for B3, the binding result is “no binding”.
With B4, the binding result is recorded as “no binding”.

For the next assay, the target named is T2, huBTNL3. Put plainly: ELISA.
As for B1, the binding result is reported as “no binding”.
On the same count and under the same terms, for B2 the value was “no binding”; for B3, “no binding”.
Regarding B4, the binding result is “no binding”.

The target of another assay is T3, huB7-H3. Put plainly: ELISA.
In the case of B1, the binding result is “no binding”.
For B2, the binding result is listed as “no binding”.
For B3, the binding result is “no binding”.
Regarding B4, the binding result is given as “no binding”.

Another assay deals with T4, huB7-H2. Put plainly: ELISA.
For the molecule B1, the binding result was “no binding”.
On to B2, for which the binding result is reported as “no binding”.
Same read-out and setting: as for B3, the entry is “no binding”; as for B4, “no binding”.

Another assay deals with T10, huB7-H1 (human, UniProt Q9NZQ7 19-238).
T10 construct: Sourced antigen; construct not described; also called Human B7-H1
T10 sequence (Q9NZQ7 19-238 limits assumed): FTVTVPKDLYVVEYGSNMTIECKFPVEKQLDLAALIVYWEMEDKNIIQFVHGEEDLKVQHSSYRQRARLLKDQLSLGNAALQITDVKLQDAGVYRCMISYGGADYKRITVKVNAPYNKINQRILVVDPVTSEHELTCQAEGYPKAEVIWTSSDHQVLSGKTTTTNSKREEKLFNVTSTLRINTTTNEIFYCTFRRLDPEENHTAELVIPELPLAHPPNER
Put plainly: ELISA.
As to B1, the binding result was “no binding”.
For the molecule B2, the binding result is recorded as “no binding”.
Still for that read-out and setting: for B3 the value was “no binding”.
With B4, the binding result is “no binding”.

The target of the next assay is T5, huBTN2A1. Nature of the assay: ELISA.
With B1, the binding result is reported as “no binding”.
On to B2, for which the binding result is given as “no binding”.
Consider B3, for which the binding result is on record as “no binding”.
Same read-out and setting: as for B4, the entry is “no binding”.

For a further assay, the target named is T6, huHHLA2. Nature of the assay: ELISA.
For B1, the binding result is “no binding”.
For the molecule B2, the binding result was “no binding”.
On to B3, for which the binding result is given as “no binding”.
In the case of B4, the binding result is listed as “no binding”.

The next assay concerns the target T11, Cyno B7-H4-Fc (Cyno B7H4 ECD, FcTM_6His) (cynomolgus monkey).
T11 construct: extracellular domain; also called cynomolgus B7-H4-Fc
Put plainly: HTRF binding, human IgG1-TM. (TR-FRET usually uses a lanthanide donor and a delayed reading to cut background.)
For orientation: EC50 means the concentration giving half of the maximal effect. With B1, the midpoint of the response, the EC50, lay at 0.28 nM and the Max was determined as 1100.
The matching figures for B2: 0.35 nM and 934.
B3 showed a 50% effective concentration (EC50) of 0.15 nM and a Max of 1480.
B4 registered an EC50 of 0.39 nM and a Max of 890.

A further assay concerns the target T7, Human B7-H4-Fc (Human B7H4 ECD, Fc_6His). Nature of the assay: HTRF binding, human IgG1-TM.
With B1, the response was half-maximal at 0.33 nM (EC50) and the Max amounted to 1270.
Taken in the same sequence, the figures for B2 were 0.41 nM and 1090.
Taken in the same sequence, the figures for B3 were 0.15 nM and 1870.
B4 came in with an EC50 of 0.31 nM and a Max of 1210.

The target in the next assay is T8, human B7-H4 on cells. Put plainly: cell-based or functional assay.
B1: the “ZAP % Viability, OVCAR4” value worked out at 40%; the “ZAP % Viability, SKBR3” value turned out to be 48%; the “ZAP IC50 (M), OVCAR4” value amounted to 2e-08 M; the “ZAP IC50 (M), SKBR3” value came to 1e-08 M.
B2: the “ZAP % Viability, OVCAR4” value stood at 46%; the “ZAP % Viability, SKBR3” value turned out to be 65%; the “ZAP IC50 (M), OVCAR4” value was 2e-08 M; the “ZAP IC50 (M), SKBR3” value turned out to be 4e-09 M.
For the molecule B3, the “ZAP % Viability, OVCAR4” value worked out at 67% and the “ZAP % Viability, SKBR3” value was determined as 84%.
Take B4: the “ZAP % Viability, OVCAR4” value was 57%; the “ZAP % Viability, SKBR3” value stood at 72%; the “ZAP IC50 (M), OVCAR4” value came out at 1e-08 M; the “ZAP IC50 (M), SKBR3” value was determined as 4e-09 M.
